Experimental data as given in the nanobody polyreactivity screen of Harvey et al. (2022).

Test: yeast display, Sf9 membrane polyspecificity reagent, FACS + sequencing; frameworks hold sequencing errors
Method in brief: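 Galactose-induced (36–48 hours) yeast carrying a synthetic nanobody display library were exposed to 10% biotinylated, detergent-solubilized Sf9 membrane reagent at 4 °C for 1 hour. FACS followed streptavidin microbead enrichment, using low and high (top ~1%) gates for expression (anti-HA) and reagent binding (streptavidin). Colony PCR, MiSeq 2 × 250 sequencing and CDR-length filtering followed. Labels for polyreactivity reflect the gate of origin.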

Sequence	polyreactivity (PSR sort gate)
QVQLVESGGGLVQAGGSLRLSCAASGFIFVKYAMGWYRQAPGKERELVAAISWSGGTTYYADSVKGRFTISRDNANNTVYLQMNSLKPEDTAVYYCAAEYYTGYFKYDYWGQGTQVTVSS	high polyreactivity
QVQLVESGGGLVQAGGSLRLSCAASGFIFVPYAMGWYRQAPGKERELVAAIDTSGGNTYADSVKGRFTISRDNAKNTVYLQMNSLKPEDTAVYYCAARYQWDWRDYYYWGQGTQVTVSS	low polyreactivity
QVQLVESGGGLVQAGGSLRLSCAASGFIFVPYAMGWYRQAPGKERELVATITWRGDSTYYADSVKGRFTISRDNAKNTVYLQMNSLKPEDTAVYYCAAVGPIRGYSSDEYWGQGTQVTVSS	low polyreactivity
QVQLVESGGGLVQAGGSLRLSCAASGFIFVRNAMGWYRQAPGKERELVAAITGRGGRTYYADSVKGRFTISRDNAKNTVYLQMNSLKPEDTAVYYCAKDSPDDHFGYWGQGTQVTVSS	high polyreactivity
QVQLVESGGGLVQAGGSLRLSCAASGFIFVRYAMGWYRLAPGKEREFVAAISGGAGSSYYADSVKGRFTISRDNAKNTVYLQMNSLKPEDTAVYYCNRVRSLRYGYWGQGTQVTVSS	high polyreactivity
QVQLVESGGGLVQAGGSLRLSCAASGFIFVSNAMGWYRQAPGKERELVATITNGDRTYYADSVKGRFPISRDNAKNTVYLQMNSLKPEDTAVYYCNADFRAREVFLFDSWGQGTQVTVSS	low polyreactivity
QVQLVESGGGLVQAGGSLRLSCAASGFIFVSYSLGWYRQAPGKERELVAAIDRIGGITYYADSVKGRFTISRDNSKNTVYLQMNSLKPEDTAVYYCAAAASYATVRVGREYYWGQGTHVTVSS	low polyreactivity
QVQLVESGGGLVQAGGSLRLSCAASGFIFVTYAMGWYRQAPGKERELVAAITNSGGTTYYADSVKGRFTISRDNAKNTVYLQMNSLKPEDTAVYYCNKPYGAETAHREFDYWGQGTHVTVSS	low polyreactivity
QVQLVESGGGLVQAGGSLRLSCAASGFIFVTYAMGWYRQAPGKERELVAAITNSGGTTYYADSVKGRFTISRDNAKNTVYLQMNSLKPEDTAVYYCNKPYGAETAHREFDYWGQGTQLTVSS	low polyreactivity
QVQLVESGGGLVQAGGSLRLSCAASGFIFVVYAMGWYRQAPGQERELVAAITYSGGSTYYADSVKGRFTISRDNAKNTVYLQMNSLKPEDTAVYYCAAPEHDREFDYWGQGTQVTVSS	low polyreactivity
QVQLVESGGGLVQAGGSLRLSCAASGFIFVVYDMGWYRQAPGKERELVAGIDTSGADTYYADSVKGRFTISRDNAKNTVYLQMNRLKPEDPAVYYCAAETITDDYYEYDYWGQGTQVTVSS	low polyreactivity
QVQLVESGGGLVQAGGSLRLSCAASGFIFVYNDMGWYRQAPGKERELVASISNGDNTNYADSVKGRFTISRDNAKNTVYLQMNSLKPEDTAVYYCAARGTIYVLGVPARPVPDGDYWGQGTQVTVSS	low polyreactivity
QVQLVESGGGLVQAGGSLRLSCAASGFIFVYYAMGWYRQAPGKERELVAAISKRGGNTYYADSVKGRFTISRDNAKNTVYLQMNSLKPEDTAVYYCAADGPGHYYAELEYDYWGQGTQVTVSS	high polyreactivity
QVQLVESGGGLVQAGGSLRLSCAASGFIFVYYAMGWYRQAPGKERELVAAITSDVNTYYADSVKGRFTISRDNAKNTVYLQMNSLKPEDTAVYYCNADADDYRDYQDYDYWGQGTQVTVSS	low polyreactivity
QVQLVESGGGLVQAGGSLRLSCAASGFIFVYYARGWYRQAPGKEMELVAAISRGGSTYYADSVKGRFTISRDNAKNTVYLQMNSLKPEDTAFYYCNKVLPYGREYGYWGQGTQVTVSS	high polyreactivity
QVQLVESGGGLVQAGGSLRLSCAASGFIFWEYAMGWYRQAPGKERELVAAISTSGGSTYYADSVKGRFTISRDNAKNTVYLQMISLKPEDTAVYYCAVDGWDDTYFRQDMDYWGQGTQVTVSS	low polyreactivity

Sequence	polyreactivity (PSR sort gate)
QVQLVESGGGLVQAGGSLRLSCAASGFIFWFNDMGWYRQAPGKERELVATISWSDTSTYYADSVKGRFTISRDNAKNTVYLQMTSLKPEDTAVYYCATDGRETCLPEYYWGQGTQVTVSS	low polyreactivity
QVQLVESGGGLVQAGGSLRLSCAASGFIFWFYAMGWYRQAPGKEREFVATISRGGSKNYADSVKGRFTISRDNAKNTVYFKINSLKAEDTEVYYCAAARSSYWKTIRAFTMDYWGQGTQVTVSS	high polyreactivity
QVQLVESGGGLVQAGGSLRLSCAASGFIFWLYAMGWYIQAPGKERELVASINWSGGDTYYADSVKGRFTISRDNAKNTFYLQMNSLKPEDTAVYYCTAKVLDSKSSFDYWGKGTQVTVSS	low polyreactivity
QVQLVESGGGLVQAGGSLRLSCAASGFIFWLYAMGWYRQAPGKERELVATITYSDGSTYYADSVKGRFTISRDNAKNTVYLQMNSLKPEDTAVYYCAAEVYYGYDYWGQGTQVTVSS	low polyreactivity
QVQLVESGGGLVQAGGSLRLSCAASGFIFWPYAMGWYRQAPGKESELVAAITTGGSTNYADSVKGRFTISRDNAKNTVYLQMNSLKPEDTAVYYCAKGYYFGYYEFDYWGQGTQVTVSS	high polyreactivity
QVQLVESGGGLVQAGGSLRLSCAASGFIFWPYVMGWYRQEPGTDRELVAAISLGDGSTYYADSVKGRFRLSRDHAKNTVYLQMNSLKPEDTAVYYCAADVTVAWYPVYPGFYYWGQGTQVTVSS	low polyreactivity
QVQLVESGGGLVQAGGSLRLSCAASGFIFWSYAMGWYRQAPGKERELVAAIDLTGGSTYYADSVKGRFTISRDNAKNTVYLQMNSLKPEDTAVYYCNADGDSYAFTNSDSGFDYWGQGTQVTVSS	low polyreactivity
QVQLVESGGGLVQAGGSLRLSCAASGFIFWSYAMGWYRQERGNEREWVAAISWSGGRTYYADSVKGRFTISRDNAKNTVYLQMNSLKPEDTAVYYCAAVKRDSSQYPALDYWGQGTQVTVSS	high polyreactivity
QVQLVESGGGLVQAGGSLRLSCAASGFIFWWYAMGWYRQAPGKERELVATITASVGSTNYADSVKGRFTISRDNAKNTVYLQMNSLKPEDTAVYYCATDIIGAIRDWDHTRMDYWGQGTQVTVSS	low polyreactivity
QVQLVESGGGLVQAGGSLRLSCAASGFIFWYYAMGWSRQAPGKERELVAAISKSGGRTYYADSVKGRFTISRDNAKNTVYLQMNSLKPEDTAVYYCARRAYLSYGYWSDYWGQGTQVTVSS	high polyreactivity
QVQLVESGGGLVQAGGSLRLSCAASGFIFWYYAMGWYRQAPGKERELVAAISSRGGSTYYADSVKGRFTISRDNAKNTVYLQMNSLKPEDTAVYYCNARYVYYGSGNDYWGQGTQVTVSS	high polyreactivity
QVQLVESGGGLVQAGGSLRLSCAASGFIFWYYGMGWYRPAPGKERELVATITSGGSTTYADSVKGRFTISRDNAKNTVYLQMNSLKPEDTAVYYCAADLFYGYYSQADFEYWGQGTQVTVSS	high polyreactivity
QVQLVESGGGLVQAGGSLRLSCAASGFIFYAYAMGWYRQAPGKERELVAAITRSGGSTYYADSVKGRFTISRDNAKNTVYLQMNSLKPEDTAVYYCAARQRTKLGYWGQGTQVTVSS	high polyreactivity
QVQLVESGGGLVQAGGSLRLSCAASGFIFYDYAMGWYRQAPGKERELVAAISKRGGSTYYADSVKGRFTISRDNAKNTVYLQMNSLKPEDTAVYYCAATSYRRTGYNYWGQGTQVTVSS	high polyreactivity
QVQLVESGGGLVQAGGSLRLSCAASGFIFYDYDMGWYRQAPGKERELVAAITYSGGSTYYADSVKGRFTISRDNAKNTVYLQMNSLKPEDTAVYYCAAVKSRYAEAVDYYYWGQGTQVTVSS	low polyreactivity
QVQLVESGGGLVQAGGSLRLSCAASGFIFYGNAMGWYRQAPGKERELVATISDGGSTNYADSVKGRFTISRDNAKNTVYFQMNSLKPEDTAVYYCATEYYTPVRGYGYWGQGTQVTVSS	low polyreactivity
